# Experiment: soluble on expression in E. coli; label from the status in PepcDB or PDB records
row,Sequence,soluble on expression in E. coli
1,VPLTVADIDRWNAQAVREVFHAASARAEVTFEASRQLAALSIFANSGGKTAEAAAHHNAGIRRDLDAHGNEALAVARAADRAADGIVKVQSELAALRHAAAAAELTIDALINRVVPIPGLRSTEAQWARTLAKQTELQAELDAIMAEANAVDEELASAVNMADGDAPIPADSGPPVGPEGLTPTQLASDANEERLREERARLQAHLERLQAEYDQLSVRAARDYHNGILDGDAVGRLAALTDELSAARGRLGELDAVDEALSRAPETYLTQLQIPEDPNQQVLAAVAVGNPDTAANVSVTVPGVGSTTRGALPGMVTEARDLRSEVIRQLNAAGKPASVATIAWMGYHPPPNPLDTGSAGDLWQTMTDGQAHAGAADLSRYLQQVRANNPSGHLTVLGHSYGSLTASLALQDLDAQSAHPVNDVVFYGSPGLELYSPAQLGLDHGHAYVMQAPHDLITNLVAPLAPLHGWGLDPYLTPGFTELSSQAGFDPGGIWRDGVYAHGDYPRSFLDAAGQPQLRMSGYNLAAIAAGLPDNTVGPPLLPPILGGGMPAAPGPALRGGR,not soluble
2,VQASDRTWQSNFIRRWYFTETVEYRPLVKYDASMSWDERTVSALEGAFRSEVRARRVNGPHRDVIVSLDGAEFLVRWLTTGWPRQVAEALHATSRPDILAAPTMSPGARKAAHDAGVGWVDESGAADIHYRNTSTGTTLVIETKGAPPAPLDARIGWRRATLAVCEALLANIAGPTVASVVEATGLSMGSSAQALKFLEKNGHLASATARGPKSARLIVDRDALLDAYAEAADKLRSPISISTGVLWRDPTAGVVKAGQLWDAAGIEWAATSALSASLLAPMQTEIAPMEIYVPGRSWSDLRRAAMAAGLQEIAGGRLILRFFPTPACARLTEQNLQGFRSMLWPRVYADLRTAGVRGEDAAEHLREAMTK,not soluble
3,VRAPVTKVHGGAGSAQRMPLCDKCGSGIVGAVVKARDKYRHPECFVCADCNLNLKQKGYFFVEGELYCETHARART,soluble
4,VRQYGDMPSRVVVLHGGPGGAGEVEPLARELGNRGHAVLEPFQTCQTVGGQVDELSSHIERFCAPPVTVIGWSWGAWLGCLLAAQRGMLVRRLILVGSGPFEESYASAIRTTKNSRLTKDQRKEISQLRPTEGDPAEVARFIALSDIADTYARDTSQQPFVAFDGAIHAAVWAEAVDMRRNGALLEAVCAIRCPVVAIHGDYDPRPSEGVQIPLRAALPSADFVQLERCGHKPWQETFAKADFYRALEA,not soluble
5,VSDQFDAKAFLKTVTSQPGVYRMYDAGGTVIYVGKAKDLKKRLSSYFRSNLASRKTEALVAQIQQIDVTVTHTETEALLLEHNYIKLYQPRYNVLLRDDKSY,soluble
6,VSELSVATGAVSTASSSIPMPAGVNPADLAAELAAVVTESVDEDYLLYECDGQWVLAAGVQAMVELDSDELRVIRDGVTRRQQWSGRPGAALGEAVDRLLLETDQAFGWVAFEFGVHRYGLQQRLAPHTPLARVFSPRTRIMVSEKEIRLFDAGIRHREAIDRLLATGVREVPQSRSVDVSDDPSGFRRRVAVAVDEIAAGRYHKVILSRCVEVPFAIDFPLTYRLGRRHNTPVRSFLLQLGGIRALGYSPELVTAVRADGVVITEPLAGTRALGRGPAIDRLARDDLESNSKEIVEHAISVRSSLEEITDIAEPGSAAVIDFMTVRERGSVQHLGSTIRARLDPSSDRMAALEALFPAVTASGIPKAAGVEAIFRLDECPRGLYSGAVVMLSADGGLDAALTLRAAYQVGGRTWLRAGAGIIEESEPEREFEETCEKLSTLTPYLVARQ,soluble
7,VSIKKSSGLNFDNTAIAINAGKGLEFDTNTSESPDINPIKTKIGSGIDYNENGAMITKLGAGLSFDNSGAITIGNKNDDKLTLWTTPDPSPNCRIHSDNDCKFTLVLTKCGSQVLATVAALAVSGDLSSMTGTVASVSIFLRFDQNGVLMENSSLKKHYWNFRNGNSTNANPYTNAVGFMPNLLAYPKTQSQTAKNNIVSQVYLHGDKTKPMILTITLNGTSESTETSEVSTYSMSFTWSWESGKYTTETFATNSYTFSYIAQE,soluble
8,VTDTDLITAGESTDGKPSDAAATDPPDLNADEPAGSLATMVLPELRALANRAGVKGTSGMRKNELIAAIEEIRRQANGAPAVDRSAQEHDKGDRPPSSEAPATQGEQTPTEQIDSQSQQVRPERRSATREAGPSGSGERAGTAADDTDNRQGGQQDAKTEERGTDAGGDQGGDQQASGGQQARGDEDGEARQGRRGRRFRDRRRRGERSGDGAEAELREDDVVQPVAGILDVLDNYAFVRTSGYLPGPHDVYVSMNMVRKNGMRRGDAVTGAVRVPKEGEQPNQRQKFNPLVRLDSINGGSVEDAKKRPEFGKLTPLYPNQRLRLETSTERLTTRVIDLIMPIGKGQRALIVSPPKAGKTTILQDIANAITRNNPECHLMVVLVDERPEEVTDMQRSVKGEVIASTFDRPPSDHTSVAELAIERAKRLVEQGKDVVVLLDSITRLGRAYNNASPASGRILSGGVDSTALYPPKRFLGAARNIEEGGSLTIIATAMVETGSTGDTVIFEEFKGTGNAELKLDRKIAERRVFPAVDVNPSGTRKDELLLSPDEFAIVHKLRRVLSGLDSHQAIDLLMSQLRKTKNNYEFLVQVSKTTPGSMDSD,not soluble
9,VTRKSLLERCMEMEKEGYTGCLLSGGMDSRLKVPLDKFKDEIKAIKEKTKLKINAHVGFVDESDLEWLKYIDVVSLDFVGDNEVIKRVYKIDKKVEDYLRVLDLLTENGIRVAPHITIGLDFGKVHWEFKAIDILVNYPIDVLVLDVLIPTPGTEMANVPKVPVDEAIRVVKYAREKFSGELSIGCMRPFGEWRVKFDREAILAGVDRI,not soluble
10,VVTSVADENVASRIASWGTGPAPDPRLDYAHAHLKGRRGRSPARPNAPIGARSFAVGRKICRVERFTLLEHGFVGHALHRVPCAGLVALVMSACSLAVCREVGNYAQRRVGRFAFFEQTFVRHALTPRCSRTDSKTSYTQLNRICKFPPHWV,not soluble
11,VVVEDSGASFGESLLDTTSEPGKILVKRISGGSGITVTDYGDQVEIEASVTDALSLMYSTSTGGPASIAANALTDFDLSGALTVNSVGTGLTKSAAGIQLAAGKSGLYQITMTVKNNTVTTGNYLLRVKYGSSDFVVACPASSLTAGGTISLLIYCNVLGVVSLDVLKFSLCNDGAALSNYIINITAAKIN,soluble
12,WIVQKQKKWSSDPVGTQKNVFDLLIKKAQKTTFGKDHAFDSIQSHADYCRLVPVREYEGFKEYIELVKQGTQDVLWPGIPLYFAKTSGTTSGVKYIPITKDSIGYHINGAKDALLNYVHQTGKSEFLDKKLIFLSGSPIMEKKNGIYIGRLSGIVNHHVPGYLRGNQLPSFETNCVDDWESKLEKIVDETIDQDMSLISGIPPWVQMYFDRIEERTHKKIKDVFPSFSLLVYGGVNFSPYKRKLIESIGKEIDTVETYPASEGFIAFQDIPGQAGLLLLLNSGIFYEFIPVEEYGSANPTRLTIGEVKTDVNYALVMSTNAGLFAYSIGDTVKFVSTAPYRIVVTGRVKHFISAFGEHVIGEEVEQAMKNALLKHPEVSITEFTVAPQVTPEEGLPYHEWLIEFISMPADMDQFAHDLDQEMIQKNIYYKDLIVGNILRPLVITSISAGGF,not soluble
13,WQFTPNTGGNTITKVEAENMKIGGTYAGKISAPFDGVALYANADYVSYSQYFANSTHNISVRGASSNAGTAKVDLVIGGVTVGSFNFTGKTPTVQTLSNITHATGDQEIKLALTSDDGTWDAYVDFIEFSL,soluble
14,WTKKTLGSLFELKKGEMLEKELLAPDGKYEYFNGGIKASGRTNEFNTFKNTISIIIGGSCGYVRLADKDYFCGQSSCTLTVLDPLEIDLKFAYYALKSQEEKITSLASGTTIKNIRLSDLKDLPIPLVKSIQDQRTIAHALSVFDL,soluble
15,WVPHELTENQKNRRFEVSSSLILRNHNEPFLDRIVTCDEKWILYDNRRRSAQWLDQEEAPKHFPKPILHPKKVMVTIWWSAAGLIHYSFLNPGETITSEKYAQEIDEMNQKLQRLQLALVNRKGPILLHDNARPHVAQPTLQKLNELGYEVLPHPPYSPDLLPTNYHVFKHLNNFLQGKRFHNQQDAENAFQEFVESQSTDFYATGINQLISRWQKCVDCNGSYFD,soluble
16,WYCLISHGTRPKYWFDIEVYRQGYYPRCGQLRSWIARKDGIWFTRKYHSPPGHVLDWKIQ,not soluble
17,YDSEVIEYAKEQENIISKLEYRVYKHDDGRSVNRQDLMRDYARVLYSSSFRRLQGKMQLLGVDASKFNRNRLTHSLEVAQIARSIAYDLELNHTVVAETASLAHDIGNPPFGHYGEVVLNDLSLACGGYEGNAQAFRILRTLEKKHYAYPGLNLNVRTLMAITKYFFNKHQNNKKFLYDADYEFLKTELDSKGVTVTKSIDAEIMDLADEIAYAAHDLEDALSFGMISLGEIVHEFSISDKFKDAYPTMTDIAKEAQNVAMKASRSGTSEEYAIVLKKELTSMIVNILCSDIGLVDGCLGYKRHAKLAEGLKKLLFKAILRKKDIQLYERRGEQIIRGLFEVYSDEKYNKDNMLLPPELRAINDCKTRLVTDYISGMMDSYAAQEYEKYFGKGSADKLYFK,soluble
18,YEGEKSVVVPVSATYKELHKLMEKEFKGKEFSVVDYDDDETILLIAVQSDKLYGTYYQFDTRTKKFTLLYDLMPQLKEEDMAEMRPIKFKSRDGLTIHGFITLPKAALEGKKVPLIVNPHGGPQGIRDSWGFNPETQLFASRGYATLQVNFRISGGYGKEFLRAGFKQIGRKAMDDVEDGVRYAISQGWVDPDRIAIYGASHGGYATLMGLVKTPDLYACGVDYVGVSNIYTFFDSFPEYWKPFKEMVKEIWYDLDNPEEAAIAKEVSPFFQIDKINKPLFVVQGANDPRVNINESDQIVTALRARGFEVPYMVKYNEGHGFHREENSMELYRAMLGFFAKHLK,not soluble
19,YHKLRLAIKEICKTDGIPNIKWGMYIAFGEKLLKSYLKMKAGSASSDMIAEYINNAISAFSSRTGISQETAQKIADFITSNY,soluble
20,YNSLSFLMRHDMIAGFHWFGPWGRDTFISMPGVLLVSGRYNEARRVLEHYAERIQDGMIPNTQDVEALRFSADTSLWFIYAVQKYLEYAGDDDFARQMLVPIKSIITAYIKGNSMFHLDDDLVTLTGSPLTWMDAMVSGKPVTPRIGKPIEINALWYNALSFYSRTAHDITGEDTEMFSKLARRIKQKFRAKFIKGDAVLDVSDPDDMKFRPNFLIPYFLPYPLLNDRKFVDLAWEKLVTPYGLRTLSPDDPDYVPTYSGPQPERDMAYHNGTVWPWLAGIFITAAVKTGYDKHALLEKFAPLFSMSRIPEIFDGSGTGIPKGCIMQAWSHGEIARAYFEDLRGGRS,not soluble

# From the DeepSol protein solubility set
